Reference: PMC6381275, “Structure and Mechanism of LcpA, a Phosphotransferase That Mediates Glycosylation of a Gram-Positive Bacterial Cell Wall-Anchored Protein” (mBio, 2019)

Tested on: CC(C)=CCC/C(C)=C/CC/C(C)=C/CO[P@@](=O)(O)OP(=O)(O)O
Experiment: fluorometric inorganic phosphate release assay (pyrophosphatase)
Type: biochemical, Actinomyces oris
Details: 20 mM Tris-HCl pH 8.0, 30°C, 24 h, 3 µM enzyme, 0-150 µM FPP

LcpA (eLcpA, recombinant extracellular LCP domain) (Actinomyces oris)
Km: 15.2 ± 3.7 µM
